For assay [1], the target named is NOX2 phox complex (rhodamine-tagged cytochrome b558 (gp91 plus p22), p40, p47 and p67), cell-free system (UniProt P04839). The experiment in a line: rhodamine fluorescence intensity over time; fully preactivated (GTP-bound) Rac added to the cell-free NOX2 phox complex with rhodamine-tagged cytochrome b558 (subunits 100 nM), SDS 100 μM; 10 mM MgCl2, 50 mM KCl, 1 mM NaCl, 0.2 mM NADPH, 10 mM GTP, 10 mM Mops pH 7.4.

The target is the same in assay [2]. The experiment in a line: rhodamine fluorescence intensity over time; initially inactive (GDP-bound) Rac added to the cell-free NOX2 phox complex with rhodamine-tagged cytochrome b558 after a fraction of preactivated wt Rac (∼2 mol %); SDS 100 μM; assay buffer with NADPH and GTP, pH 7.4; also with H2O2 (unaffected) or ascorbic acid 10 mM (enhanced).

Regarding “K132E Rac (from UniProt P63000 1-192) (natural protein)”, the fold slower binding than wt Rac in assay [1] came out at 1.5 fold. In addition, in assay [2], the fold slower rate of binding than wt Rac was 1.5 fold.

In the case of “L134R Rac (from UniProt P63000 1-192) (natural protein)”, in assay [1], the fold slower binding than wt Rac stood at 1.5 fold. Besides, in assay [2], the fold slower rate of binding than wt Rac stood at 1.5 fold.

The values above are taken from publication PMC8353492.
